IntAct's records for PubMed 21642969

B1: Transcription intermediary factor 1-beta (Homo sapiens), Q13263 (parent)
chain: MAASAAAASAAAASAASGSPGPGEGSAGGEKRSTAPSAAASASASAAASSPAGGGAEALELLEHCGVCRERLRPEREPRLLPCLHSACSACLGPAAPAAANSSGDGGAAGDGTVVDCPVCKQQCFSKDIVENYFMRDSGSKAATDAQDANQCCTSCEDNAPATSYCVECSEPLCETCVEAHQRVKYTKDHTVRSTGPAKSRDGERTVYCNVHKHEPLVLFCESCDTLTCRDCQLNAHKDHQYQFLEDAVRNQRKLLASLVKRLGDKHATLQKSTKEVRSSIRQVSDVQKRVQVDVKMAILQIMKELNKRGRVLVNDAQKVTEGQQERLERQHWTMTKIQKHQEHILRFASWALESDNNTALLLSKKLIYFQLHRALKMIVDPVEPHGEMKFQWDLNAWTKSAEAFGKIVAERPGTNSTGPAPMAPPRAPGPLSKQGSGSSQPMEVQEGYGFGSGDDPYSSAEPHVSGVKRSRSGEGEVSGLMRKVPRVSLERLDLDLTADSQPPVFKVFPGSTTEDYNLIVIERGAAAAATGQPGTAPAGTPGAPPLAGMAIVKEEETEAAIGAPPTATEGPETKPVLMALAEGPGAEGPRLASPSGSTSSGLEVVAPEGTSAPGGGPGTLDDSATICRVCQKPGDLVMCNQCEFCFHLDCHLPALQDVPGEEWSCSLCHVLPDLKEEDGSLSLDGADSTGVVAKLSPANQRKCERVLLALFCHEPCRPLHQLATDSTFSLDQPGGTLDLTLIRARLQEKLSPPYSSPQEFAQDVGRMFKQFNKLTEDKADVQSIIGLQRFFETRMNEAFGDTKFSAVLVEPPPMSLPGAGLSSQELSGGPGDGP

Variants of: B1
Conditions: with chd3_human CHD3, Q12873
Sequence of chd3_human CHD3, Q12873 (Q12873 whole entry): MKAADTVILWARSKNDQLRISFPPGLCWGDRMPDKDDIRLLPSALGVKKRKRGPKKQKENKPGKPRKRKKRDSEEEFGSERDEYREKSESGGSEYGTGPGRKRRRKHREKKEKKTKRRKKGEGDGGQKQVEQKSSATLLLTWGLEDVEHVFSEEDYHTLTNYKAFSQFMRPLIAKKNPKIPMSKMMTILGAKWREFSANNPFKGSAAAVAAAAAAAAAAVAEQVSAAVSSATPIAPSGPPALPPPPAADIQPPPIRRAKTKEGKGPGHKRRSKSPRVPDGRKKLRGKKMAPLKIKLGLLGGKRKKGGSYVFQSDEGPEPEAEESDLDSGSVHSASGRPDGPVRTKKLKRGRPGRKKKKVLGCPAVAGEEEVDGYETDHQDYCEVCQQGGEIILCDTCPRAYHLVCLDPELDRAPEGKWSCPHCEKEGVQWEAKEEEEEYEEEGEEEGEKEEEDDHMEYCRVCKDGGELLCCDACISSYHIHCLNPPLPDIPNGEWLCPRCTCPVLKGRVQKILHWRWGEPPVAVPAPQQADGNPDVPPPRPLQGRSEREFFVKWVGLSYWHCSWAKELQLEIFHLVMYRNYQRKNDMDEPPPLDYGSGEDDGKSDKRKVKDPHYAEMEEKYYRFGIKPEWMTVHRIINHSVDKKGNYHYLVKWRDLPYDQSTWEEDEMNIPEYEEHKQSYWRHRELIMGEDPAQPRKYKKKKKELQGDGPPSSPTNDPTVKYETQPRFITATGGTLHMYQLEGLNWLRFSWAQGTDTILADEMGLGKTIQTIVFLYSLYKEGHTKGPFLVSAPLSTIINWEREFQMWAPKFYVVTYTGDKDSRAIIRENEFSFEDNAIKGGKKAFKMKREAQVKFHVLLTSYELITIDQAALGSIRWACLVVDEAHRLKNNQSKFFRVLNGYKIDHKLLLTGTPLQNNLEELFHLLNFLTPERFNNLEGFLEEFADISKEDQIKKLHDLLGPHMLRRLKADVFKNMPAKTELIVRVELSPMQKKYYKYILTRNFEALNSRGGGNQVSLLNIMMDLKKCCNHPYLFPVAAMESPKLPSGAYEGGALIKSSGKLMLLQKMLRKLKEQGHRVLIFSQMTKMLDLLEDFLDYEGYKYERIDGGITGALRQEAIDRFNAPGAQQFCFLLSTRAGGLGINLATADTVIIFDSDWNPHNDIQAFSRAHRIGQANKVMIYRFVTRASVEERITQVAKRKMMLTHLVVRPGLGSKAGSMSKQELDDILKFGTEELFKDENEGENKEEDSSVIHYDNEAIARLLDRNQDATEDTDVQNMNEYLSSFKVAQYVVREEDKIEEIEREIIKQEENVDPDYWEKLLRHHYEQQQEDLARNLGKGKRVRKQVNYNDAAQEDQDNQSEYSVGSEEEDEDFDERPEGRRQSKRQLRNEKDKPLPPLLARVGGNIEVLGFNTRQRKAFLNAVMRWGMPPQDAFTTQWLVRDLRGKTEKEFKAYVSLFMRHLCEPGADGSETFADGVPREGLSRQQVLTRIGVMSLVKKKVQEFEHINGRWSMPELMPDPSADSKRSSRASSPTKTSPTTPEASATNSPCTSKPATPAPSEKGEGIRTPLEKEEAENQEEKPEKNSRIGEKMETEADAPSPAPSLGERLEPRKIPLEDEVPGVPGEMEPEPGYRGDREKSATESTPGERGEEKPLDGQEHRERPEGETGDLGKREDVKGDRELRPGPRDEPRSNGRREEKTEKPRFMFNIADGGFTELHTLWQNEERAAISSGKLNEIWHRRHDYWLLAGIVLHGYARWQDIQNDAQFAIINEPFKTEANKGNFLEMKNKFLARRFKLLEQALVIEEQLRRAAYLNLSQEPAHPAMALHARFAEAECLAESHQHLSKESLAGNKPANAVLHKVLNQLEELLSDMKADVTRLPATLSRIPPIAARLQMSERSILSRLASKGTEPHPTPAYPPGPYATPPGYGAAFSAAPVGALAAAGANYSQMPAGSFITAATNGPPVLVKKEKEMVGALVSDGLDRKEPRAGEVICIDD
In the case of S824D, the “effect of a mutation on the interaction” value is reported as “decreasing interaction”.
For K554R;K779R;K804R, the “effect of a mutation on the interaction” value was “disrupting interaction”.
